{"source": "patent US20250368745A1", "about": "(published 2025)"}
{"target": "T1, human IL-18BP (human, UniProt O95998 31-194)", "T1 construct": "UniProt printed as 095998; also called hIL-18BP", "T1 sequence": "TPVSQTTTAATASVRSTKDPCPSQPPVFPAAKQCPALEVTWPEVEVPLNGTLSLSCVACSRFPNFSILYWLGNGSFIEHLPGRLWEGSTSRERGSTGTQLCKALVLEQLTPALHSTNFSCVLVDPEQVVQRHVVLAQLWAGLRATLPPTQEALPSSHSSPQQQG", "experiment": "BLI, apparent KD", "units": {"Kd": "nM"}}
{"binder": "SA301a HC-G55A (antibody, name in Kabat numbering, V domains shown, IgG1 kappa) VH: QVQLQESGPGLVKPSQTLSLTCTVSGYSITSDYNSHWIRQPPGKGLEWIGYIHYSASTNYNPSLKSRVTISRDTSKNQFSLKLSSVTAADTAVYYCARNYGSIYVNYFDYWGQGTLVTVSS VL: EIVLTQSPATLSLSPGERATLSCSASSSVSYMYWYQQKPGQAPRPLIYRTSNLASGIPARFSGSGSGTDFTLTISSLEPEDFAVYYCQQYHSYPTFGGGTKVEIK", "Kd": 0.75}
{"binder": "SA301a HC-G55H (antibody, name in Kabat numbering, V domains shown, IgG1 kappa) VH: QVQLQESGPGLVKPSQTLSLTCTVSGYSITSDYNSHWIRQPPGKGLEWIGYIHYSHSTNYNPSLKSRVTISRDTSKNQFSLKLSSVTAADTAVYYCARNYGSIYVNYFDYWGQGTLVTVSS VL: EIVLTQSPATLSLSPGERATLSCSASSSVSYMYWYQQKPGQAPRPLIYRTSNLASGIPARFSGSGSGTDFTLTISSLEPEDFAVYYCQQYHSYPTFGGGTKVEIK", "Kd": 1.31}
{"binder": "SA301a HC-G55D (antibody, name in Kabat numbering, V domains shown, IgG1 kappa) VH: QVQLQESGPGLVKPSQTLSLTCTVSGYSITSDYNSHWIRQPPGKGLEWIGYIHYSDSTNYNPSLKSRVTISRDTSKNQFSLKLSSVTAADTAVYYCARNYGSIYVNYFDYWGQGTLVTVSS VL: EIVLTQSPATLSLSPGERATLSCSASSSVSYMYWYQQKPGQAPRPLIYRTSNLASGIPARFSGSGSGTDFTLTISSLEPEDFAVYYCQQYHSYPTFGGGTKVEIK", "Kd": 1.37}
{"binder": "SA301a HC-G55F (antibody, name in Kabat numbering, V domains shown, IgG1 kappa) VH: QVQLQESGPGLVKPSQTLSLTCTVSGYSITSDYNSHWIRQPPGKGLEWIGYIHYSFSTNYNPSLKSRVTISRDTSKNQFSLKLSSVTAADTAVYYCARNYGSIYVNYFDYWGQGTLVTVSS VL: EIVLTQSPATLSLSPGERATLSCSASSSVSYMYWYQQKPGQAPRPLIYRTSNLASGIPARFSGSGSGTDFTLTISSLEPEDFAVYYCQQYHSYPTFGGGTKVEIK", "Kd": 1.17}
{"binder": "SA301a HC-G55E (antibody, name in Kabat numbering, V domains shown, IgG1 kappa) VH: QVQLQESGPGLVKPSQTLSLTCTVSGYSITSDYNSHWIRQPPGKGLEWIGYIHYSESTNYNPSLKSRVTISRDTSKNQFSLKLSSVTAADTAVYYCARNYGSIYVNYFDYWGQGTLVTVSS VL: EIVLTQSPATLSLSPGERATLSCSASSSVSYMYWYQQKPGQAPRPLIYRTSNLASGIPARFSGSGSGTDFTLTISSLEPEDFAVYYCQQYHSYPTFGGGTKVEIK", "Kd": 0.4}
{"target": "T1, human IL-18BP", "experiment": "BLI, apparent KD", "remark": "another data set of the same source", "units": {"Kd": "nM"}}
{"binder": "SA301a LC-P95Y (antibody, V domains shown) VH: QVQLQESGPGLVKPSQTLSLTCTVSGYSITSDYNSHWIRQPPGKGLEWIGYIHYSGSTNYNPSLKSRVTISRDTSKNQFSLKLSSVTAADTAVYYCARNYGSIYVNYFDYWGQGTLVTVSS VL: EIVLTQSPATLSLSPGERATLSCSASSSVSYMYWYQQKPGQAPRPLIYRTSNLASGIPARFSGSGSGTDFTLTISSLEPEDFAVYYCQQYHSYYTFGGGTKVEIK", "Kd": 0.82}
{"binder": "SA301a LC-T96D (antibody, V domains shown) VH: QVQLQESGPGLVKPSQTLSLTCTVSGYSITSDYNSHWIRQPPGKGLEWIGYIHYSGSTNYNPSLKSRVTISRDTSKNQFSLKLSSVTAADTAVYYCARNYGSIYVNYFDYWGQGTLVTVSS VL: EIVLTQSPATLSLSPGERATLSCSASSSVSYMYWYQQKPGQAPRPLIYRTSNLASGIPARFSGSGSGTDFTLTISSLEPEDFAVYYCQQYHSYPDFGGGTKVEIK", "Kd": 0.13}
{"binder": "SA301a LC-T96E (antibody, V domains shown) VH: QVQLQESGPGLVKPSQTLSLTCTVSGYSITSDYNSHWIRQPPGKGLEWIGYIHYSGSTNYNPSLKSRVTISRDTSKNQFSLKLSSVTAADTAVYYCARNYGSIYVNYFDYWGQGTLVTVSS VL: EIVLTQSPATLSLSPGERATLSCSASSSVSYMYWYQQKPGQAPRPLIYRTSNLASGIPARFSGSGSGTDFTLTISSLEPEDFAVYYCQQYHSYPEFGGGTKVEIK", "Kd": 0.31}
{"binder": "SA301a LC-P95E (antibody, V domains shown) VH: QVQLQESGPGLVKPSQTLSLTCTVSGYSITSDYNSHWIRQPPGKGLEWIGYIHYSGSTNYNPSLKSRVTISRDTSKNQFSLKLSSVTAADTAVYYCARNYGSIYVNYFDYWGQGTLVTVSS VL: EIVLTQSPATLSLSPGERATLSCSASSSVSYMYWYQQKPGQAPRPLIYRTSNLASGIPARFSGSGSGTDFTLTISSLEPEDFAVYYCQQYHSYETFGGGTKVEIK", "Kd": 0.44}
{"binder": "SA301a LC-T96I (antibody, V domains shown) VH: QVQLQESGPGLVKPSQTLSLTCTVSGYSITSDYNSHWIRQPPGKGLEWIGYIHYSGSTNYNPSLKSRVTISRDTSKNQFSLKLSSVTAADTAVYYCARNYGSIYVNYFDYWGQGTLVTVSS VL: EIVLTQSPATLSLSPGERATLSCSASSSVSYMYWYQQKPGQAPRPLIYRTSNLASGIPARFSGSGSGTDFTLTISSLEPEDFAVYYCQQYHSYPIFGGGTKVEIK", "Kd": 0.12}
{"binder": "SA301a LC-P95F (antibody, V domains shown) VH: QVQLQESGPGLVKPSQTLSLTCTVSGYSITSDYNSHWIRQPPGKGLEWIGYIHYSGSTNYNPSLKSRVTISRDTSKNQFSLKLSSVTAADTAVYYCARNYGSIYVNYFDYWGQGTLVTVSS VL: EIVLTQSPATLSLSPGERATLSCSASSSVSYMYWYQQKPGQAPRPLIYRTSNLASGIPARFSGSGSGTDFTLTISSLEPEDFAVYYCQQYHSYFTFGGGTKVEIK", "Kd": 2.01}
{"binder": "SA301a LC-T96K (antibody, V domains shown) VH: QVQLQESGPGLVKPSQTLSLTCTVSGYSITSDYNSHWIRQPPGKGLEWIGYIHYSGSTNYNPSLKSRVTISRDTSKNQFSLKLSSVTAADTAVYYCARNYGSIYVNYFDYWGQGTLVTVSS VL: EIVLTQSPATLSLSPGERATLSCSASSSVSYMYWYQQKPGQAPRPLIYRTSNLASGIPARFSGSGSGTDFTLTISSLEPEDFAVYYCQQYHSYPKFGGGTKVEIK", "Kd": 0.05}
{"binder": "SA301a LC-P95L (antibody, V domains shown) VH: QVQLQESGPGLVKPSQTLSLTCTVSGYSITSDYNSHWIRQPPGKGLEWIGYIHYSGSTNYNPSLKSRVTISRDTSKNQFSLKLSSVTAADTAVYYCARNYGSIYVNYFDYWGQGTLVTVSS VL: EIVLTQSPATLSLSPGERATLSCSASSSVSYMYWYQQKPGQAPRPLIYRTSNLASGIPARFSGSGSGTDFTLTISSLEPEDFAVYYCQQYHSYLTFGGGTKVEIK", "Kd": 2.18}
{"binder": "SA301a LC-P95A (antibody, V domains shown) VH: QVQLQESGPGLVKPSQTLSLTCTVSGYSITSDYNSHWIRQPPGKGLEWIGYIHYSGSTNYNPSLKSRVTISRDTSKNQFSLKLSSVTAADTAVYYCARNYGSIYVNYFDYWGQGTLVTVSS VL: EIVLTQSPATLSLSPGERATLSCSASSSVSYMYWYQQKPGQAPRPLIYRTSNLASGIPARFSGSGSGTDFTLTISSLEPEDFAVYYCQQYHSYATFGGGTKVEIK", "Kd": 0.26}
{"binder": "SA301a LC-P95N (antibody, V domains shown) VH: QVQLQESGPGLVKPSQTLSLTCTVSGYSITSDYNSHWIRQPPGKGLEWIGYIHYSGSTNYNPSLKSRVTISRDTSKNQFSLKLSSVTAADTAVYYCARNYGSIYVNYFDYWGQGTLVTVSS VL: EIVLTQSPATLSLSPGERATLSCSASSSVSYMYWYQQKPGQAPRPLIYRTSNLASGIPARFSGSGSGTDFTLTISSLEPEDFAVYYCQQYHSYNTFGGGTKVEIK", "Kd": 0.32}
{"binder": "SA301a LC-T96Y (antibody, V domains shown) VH: QVQLQESGPGLVKPSQTLSLTCTVSGYSITSDYNSHWIRQPPGKGLEWIGYIHYSGSTNYNPSLKSRVTISRDTSKNQFSLKLSSVTAADTAVYYCARNYGSIYVNYFDYWGQGTLVTVSS VL: EIVLTQSPATLSLSPGERATLSCSASSSVSYMYWYQQKPGQAPRPLIYRTSNLASGIPARFSGSGSGTDFTLTISSLEPEDFAVYYCQQYHSYPYFGGGTKVEIK", "Kd": 0.22}
{"binder": "SA301a LC-P95K (antibody, V domains shown) VH: QVQLQESGPGLVKPSQTLSLTCTVSGYSITSDYNSHWIRQPPGKGLEWIGYIHYSGSTNYNPSLKSRVTISRDTSKNQFSLKLSSVTAADTAVYYCARNYGSIYVNYFDYWGQGTLVTVSS VL: EIVLTQSPATLSLSPGERATLSCSASSSVSYMYWYQQKPGQAPRPLIYRTSNLASGIPARFSGSGSGTDFTLTISSLEPEDFAVYYCQQYHSYKTFGGGTKVEIK", "Kd": 0.22}
{"binder": "SA301a LC-T96M (antibody, V domains shown) VH: QVQLQESGPGLVKPSQTLSLTCTVSGYSITSDYNSHWIRQPPGKGLEWIGYIHYSGSTNYNPSLKSRVTISRDTSKNQFSLKLSSVTAADTAVYYCARNYGSIYVNYFDYWGQGTLVTVSS VL: EIVLTQSPATLSLSPGERATLSCSASSSVSYMYWYQQKPGQAPRPLIYRTSNLASGIPARFSGSGSGTDFTLTISSLEPEDFAVYYCQQYHSYPMFGGGTKVEIK", "Kd": 0.19}
{"binder": "SA301a LC-T96A (antibody, V domains shown) VH: QVQLQESGPGLVKPSQTLSLTCTVSGYSITSDYNSHWIRQPPGKGLEWIGYIHYSGSTNYNPSLKSRVTISRDTSKNQFSLKLSSVTAADTAVYYCARNYGSIYVNYFDYWGQGTLVTVSS VL: EIVLTQSPATLSLSPGERATLSCSASSSVSYMYWYQQKPGQAPRPLIYRTSNLASGIPARFSGSGSGTDFTLTISSLEPEDFAVYYCQQYHSYPAFGGGTKVEIK", "Kd": 0.17}
{"binder": "SA301a LC-T96V (antibody, V domains shown) VH: QVQLQESGPGLVKPSQTLSLTCTVSGYSITSDYNSHWIRQPPGKGLEWIGYIHYSGSTNYNPSLKSRVTISRDTSKNQFSLKLSSVTAADTAVYYCARNYGSIYVNYFDYWGQGTLVTVSS VL: EIVLTQSPATLSLSPGERATLSCSASSSVSYMYWYQQKPGQAPRPLIYRTSNLASGIPARFSGSGSGTDFTLTISSLEPEDFAVYYCQQYHSYPVFGGGTKVEIK", "Kd": 0.21}
{"binder": "SA301a LC-T96P (antibody, V domains shown) VH: QVQLQESGPGLVKPSQTLSLTCTVSGYSITSDYNSHWIRQPPGKGLEWIGYIHYSGSTNYNPSLKSRVTISRDTSKNQFSLKLSSVTAADTAVYYCARNYGSIYVNYFDYWGQGTLVTVSS VL: EIVLTQSPATLSLSPGERATLSCSASSSVSYMYWYQQKPGQAPRPLIYRTSNLASGIPARFSGSGSGTDFTLTISSLEPEDFAVYYCQQYHSYPPFGGGTKVEIK", "Kd": 0.26}
